Data published in the supplement of paper PMC10567573.

B1: PDS5B (parent)
chain: IYKKYALQSAAGKDAAKQIAWIKD

Variants of: B1
Experiment: protein stability index of a GFP-peptide fusion (GPS, HEK-293T) (PSI 1-6); higher = more stable
Settings: c terminus: a fixed tail appended
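Also: lentivirally expressed fusions sorted by FACS into six bins by GFP to DsRed ratio, PSI derived from sequencing read proportions per bin multiplied by bin number.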

Variant | protein stability index
IYKKYALQSRAGKDAAKQIAWIKD [A10R] | 1.37
IYKKYALQSKAGKDAAKQIAWIKD [A10K] | 2
IYKKYALQSWAGKDAAKQIAWIKD [A10W] | 1.77
IYKKYALQSVAGKDAAKQIAWIKD [A10V] | 2.1
IYKKYALQSSAGKDAAKQIAWIKD [A10S] | 2.36
IYKKYALQSNAGKDAAKQIAWIKD [A10N] | 2.19
IYKKYALQSMAGKDAAKQIAWIKD [A10M] | 1.83
IYKKYALQSTAGKDAAKQIAWIKD [A10T] | 2.42
IYKKYALQSQAGKDAAKQIAWIKD [A10Q] | 2.4
IYKKYALQSYAGKDAAKQIAWIKD [A10Y] | 1.75
IYKKYALQSIAGKDAAKQIAWIKD [A10I] | 1.89
IYKKYALQSLAGKDAAKQIAWIKD [A10L] | 2.32
IYKKYALQSPAGKDAAKQIAWIKD [A10P] | 2.26
IYKKYALQSAADKDAAKQIAWIKD [G12D] | 3.13
IYKKYALQSAAPKDAAKQIAWIKD [G12P] | 2.74
IYKKYALQSAAQKDAAKQIAWIKD [G12Q] | 1.58
IYKKYALQSAAEKDAAKQIAWIKD [G12E] | 2.34
IYKKYALQSAAHKDAAKQIAWIKD [G12H] | 1.67
IYKKYALQSAACKDAAKQIAWIKD [G12C] | 1.6
IYKKYALQSAAWKDAAKQIAWIKD [G12W] | 2.63
IYKKYALQSAATKDAAKQIAWIKD [G12T] | 1.71
IYKKYALQSAAKKDAAKQIAWIKD [G12K] | 1.75
IYKKYALQSAAAKDAAKQIAWIKD [G12A] | 1.86
IYKKYALQSAAFKDAAKQIAWIKD [G12F] | 1.99

Variant | protein stability index
IYKKYALQSAANKDAAKQIAWIKD [G12N] | 2.19
IYKKYALQSAAYKDAAKQIAWIKD [G12Y] | 1.64
IYKKYALQSAASKDAAKQIAWIKD [G12S] | 1.96
IYKKYALQSAARKDAAKQIAWIKD [G12R] | 1.88
IYKKYALQSAALKDAAKQIAWIKD [G12L] | 1.84
IYKKYALQSAAVKDAAKQIAWIKD [G12V] | 2.08
IYKKYALQSAAIKDAAKQIAWIKD [G12I] | 1.69
IYKKYALQSAAGKQAAKQIAWIKD [D14Q] | 2.15
IYKKYALQSAAGKIAAKQIAWIKD [D14I] | 1.82
IYKKYALQSAAGKGAAKQIAWIKD [D14G] | 2.24
IYKKYALQSAAGKCAAKQIAWIKD [D14C] | 1.36
IYKKYALQSAAGKHAAKQIAWIKD [D14H] | 1.86
IYKKYALQSAAGKWAAKQIAWIKD [D14W] | 2.1
IYKKYALQSAAGKSAAKQIAWIKD [D14S] | 2.15
IYKKYALQSAAGKYAAKQIAWIKD [D14Y] | 1.85
IYKKYALQSAAGKTAAKQIAWIKD [D14T] | 1.94
IYKKYALQSAAGKFAAKQIAWIKD [D14F] | 2.07
IYKKYALQSAAGKAAAKQIAWIKD [D14A] | 1.9
IYKKYALQSAAGKMAAKQIAWIKD [D14M] | 2.1
IYKKYALQSAAGKLAAKQIAWIKD [D14L] | 1.68
IYKKYALQSAAGKVAAKQIAWIKD [D14V] | 2.1
IYKKYALQSAAGKKAAKQIAWIKD [D14K] | 2.28
IYKKYALQSAAGKPAAKQIAWIKD [D14P] | 2.34
IYKKYALQSAAGKEAAKQIAWIKD [D14E] | 2.1

Variant | protein stability index
IYKKYALQSAAGKRAAKQIAWIKD [D14R] | 2.72
IYKKYALQSAAGKNAAKQIAWIKD [D14N] | 2.19
IYKKYALQSAAGKDAAKSIAWIKD [Q18S] | 2.58
IYKKYALQSAAGKDAAKCIAWIKD [Q18C] | 1.75
IYKKYALQSAAGKDAAKNIAWIKD [Q18N] | 2.49
IYKKYALQSAAGKDAAKGIAWIKD [Q18G] | 2.45
IYKKYALQSAAGKDAAKKIAWIKD [Q18K] | 2.6
IYKKYALQSAAGKDAAKVIAWIKD [Q18V] | 2.07
IYKKYALQSAAGKDAAKIIAWIKD [Q18I] | 2.4
IYKKYALQSAAGKDAAKRIAWIKD [Q18R] | 2.24
IYKKYALQSAAGKDAAKLIAWIKD [Q18L] | 1.99
IYKKYALQSAAGKDAAKWIAWIKD [Q18W] | 2.18
IYKKYALQSAAGKDAAKFIAWIKD [Q18F] | 2.33
IYKKYALQSAAGKDAAKHIAWIKD [Q18H] | 2.43
IYKKYALQSAAGKDAAKEIAWIKD [Q18E] | 2.45
IYKKYALQSAAGKDAAKAIAWIKD [Q18A] | 2.06
IYKKYALQSAAGKDAAKPIAWIKD [Q18P] | 2.37
IYKKYALQSAAGKDAAKMIAWIKD [Q18M] | 2.38
IYKKYALQSAAGKDAAKTIAWIKD [Q18T] | 1.6
IYKKYALQSAAGKDAAKDIAWIKD [Q18D] | 2.83
IYKKYALQSAAGKDAAKYIAWIKD [Q18Y] | 1.33
IYKKYALQSAAGKDNAKQIAWIKD [A15N] | 2.5
IYKKYALQSAAGKDPAKQIAWIKD [A15P] | 2.56
IYKKYALQSAAGKDSAKQIAWIKD [A15S] | 2.73

Variant | protein stability index
IYKKYALQSAAGKDGAKQIAWIKD [A15G] | 2.9
IYKKYALQSAAGKDQAKQIAWIKD [A15Q] | 2.29
IYKKYALQSAAGKDIAKQIAWIKD [A15I] | 1.69
IYKKYALQSAAGKDWAKQIAWIKD [A15W] | 1.43
IYKKYALQSAAGKDMAKQIAWIKD [A15M] | 1.83
IYKKYALQSAAGKDDAKQIAWIKD [A15D] | 2.35
IYKKYALQSAAGKDRAKQIAWIKD [A15R] | 2.09
IYKKYALQSAAGKDKAKQIAWIKD [A15K] | 2.76
IYKKYALQSAAGKDHAKQIAWIKD [A15H] | 2.22
IYKKYALQSAAGKDYAKQIAWIKD [A15Y] | 1.45
IYKKYALQSAAGKDFAKQIAWIKD [A15F] | 1.75
IYKKYALQSAAGKDEAKQIAWIKD [A15E] | 2.7
IYKKYALQSAAGKDTAKQIAWIKD [A15T] | 2.35
IYKKYALQSAAGKDLAKQIAWIKD [A15L] | 2.64
IYKKYALQSAAGKDVAKQIAWIKD [A15V] | 1.71
IYKKYALQSAAGKDCAKQIAWIKD [A15C] | 1.89
IYKKYALQSAAGKDAAKQIGWIKD [A20G] | 2.25
IYKKYALQSAAGKDAAKQIHWIKD [A20H] | 2.07
IYKKYALQSAAGKDAAKQIEWIKD [A20E] | 2.66
IYKKYALQSAAGKDAAKQICWIKD [A20C] | 2.18
IYKKYALQSAAGKDAAKQIFWIKD [A20F] | 1.95
IYKKYALQSAAGKDAAKQIDWIKD [A20D] | 3.39
